Results: article PMC4364448

Target: Arp2/3 complex (bovine) (UniProt A7MB62)
Assay: ITC

Kd [nM]	Kd site-1 [nM]	Kd site-2 [nM]	stoichiometry N	fold lower affinity than N-WASP WCA, site-1 [fold]	fold lower affinity than N-WASP WCA, site-2 [fold]	Substance
200						Human GMFγ (from UniProt O60234 1-142) (natural protein)
	20	182	2			WCA_(N-WASP) (domain or fragment)
			2	2	6	WCA_(WAVE) (domain or fragment)
